Measured values from patent US11266968B2, “Mineralizing biosurfactant used for nucleating silica” (THE UNIVERSITY OF QUEENSLAND, priority 2013, dated 2022).

How the values were obtained:
[1] = TEM measurement of nanocapsule silica shell thickness and diameter; format: physicochemical
Method: (§1) The size distribution profile of the nanoemulsions and nanocapsules was determined by dynamic light scattering (DLS, Malvern Zetasizer Nano ZS) and the samples were diluted by a factor of 100 prior to the measurement. The morphology and shell thickness of the nanocapsules were examined by transmission electron microscopy (TEM, JEOL 1010, 100 kV accelerating voltage). Samples (2 μL) were taken directly from the reaction mixtures, deposited onto Formvar-coated copper grids (200 mesh), and left to air-dry prior to examination. Samples were also analyzed for high-resolution (HR) TEM (JEOL 2100, 200 kV accelerating voltage) equipped with an energy dispersive X-ray spectroscopy (EDS) detector. The formation of amorphous silica was verified by selected area electron diffraction (SAED) in HRTEM.
(§2) Each of the dialyzed nanoemulsion compositions from Example 2 at pH 7.5 or 8.0 were divided into a number of separate glass vials. One composition of each peptide nanoemulsion at each pH was retained as a control. To the other compositions, three concentrations of TEOS were added to separate vials, 20 mM, 40 mM and 80 mM, and the compositions were gently stirred for 20 to 50 hours. The compositions were then analyzed by DLS and a size increase consistent with the formation of a thick layer surrounding the oil droplet core in TEOS-containing solutions was observed.
The shell thickness of at least 100 individual nanocapsules were measured by TEM (a dark ring around the perimeter of the bright core). The silica layer formed on SEQ ID NO: 153 and SEQ ID NO: 154 nanoemulsions at pH 7.5 was 22±5 nm and 12±2 nm thick respectively and at pH 8.0, 35±5 nm and 27±6 nm respectively.
SEQ ID NO: 155 was used to facilitate formation and stabilization of nanoemulsions, and subsequently direct nucleation and growth of silica shell encasing the nanoemulsion template. A solution of SEQ ID NO: 155 (115 μM) in HEPES buffer (25 mM, pH 7.5) was mixed with Miglyol® 812 oil (10% v/v) by sonication at 10 W using Branson Sonifier 450 for 4×30 s burst and interspersed with cooling in an ice bath for 60 s. An aliquot of SEQ ID NO: 155 nanoemulsions (400 μL) was transferred to a glass vial and added with TEOS (80 mM). The mixture was then stirred at room temperature for 20 h to form silica shell surrounding the nanoemulsions.

[2] = Dynamic light scattering of nanoemulsions and nanocapsules; format: physicochemical; conditions: for Number-average diameter (dn) of oil droplets in nanoemulsion / Polydispersity index (PDI) of nanoemulsion: 400 μM peptide, 800 μM ZnCl2, 2% v/v Miglyol 812, HEPES pH 7.0, after sonication; for Increase in number-average diameter of nanoemulsion after dialysis: dialysis 20 hours against HEPES 25 mM, pH 7.5 or 8.0, 10 kDa membrane; for PDI of nanocapsules: 80 mM TEOS, 25 mM HEPES
Method: as §1
Separate solutions of SEQ ID NO: 153 (400 μM) and SEQ ID NO: 154 (400 μM) in HEPES buffer (25 mM, pH 7.0) in the presence of ZnCl2 (800 μM) were mixed with Miglyol® 812 (2% v/v) by sonication (Branson Sonifier 450, 10 W, 4×30 s burst and interspersed with cooling in an ice bath for 60 s). After sonication, the compositions were macroscopically identical and homogeneous with cloudy appearance.
The nanoemulsion compositions (1 mL) were dialyzed against HEPES buffer (500 mL, 25 mM, pH 7.5 or 8.0) using a 10 kDa cellulose membrane to adjust pH of each nanoemulsion and to remove residual peptide. After dialysis for 20 hours there was only a slight increase, approximately 5%, in the number-average diameter of nanoemulsions stabilized by either SEQ ID NO: 153 or SEQ ID NO: 154 and the PDIs remained similar. The nanoemulsions were stable to dialysis.
as §2

[3] = Precipitation of silica from TEOS by biosurfactants; conditions: 400 μM peptide, 25 mM HEPES pH 7.5 and 8.0, 80 mM TEOS, room temperature
Method: To test whether biosurfactants SEQ ID NO: 153 and SEQ ID NO: 154 were able to precipitate silica, separate aqueous solutions of SEQ ID NO: 153 and SEQ ID NO: 154 (400 μM) in HEPES buffer (25 mM) at pH 7.5 and 8.0 were prepared and TEOS (80 mM) was added. A solution of each biosurfactant was retained without TEOS as a control. The mixtures were gently stirred at room temperature. A transparent gel-like precipitate formed within a few minutes in those compositions which had TEOS added whereas the control remained a solution. The precipitate was isolated and extensively washed with water and vacuum dried. The precipitate was analyzed by elemental analysis using EDS in conjunction with scanning electron microscopy (SEM, JEOL 6610). […] Excess oxygen, carbon and sulfur also found in the analysis were consistent with entrapped peptide.

[4] = pH 7.5, at least 100 nanocapsules by TEM
[5] = pH 8.0, at least 100 nanocapsules by TEM
[6] = pH 7.5, 20 hours silicification
[7] = pH 8.0, 20 hours silicification
[8] = 115 μM protein, 10% v/v Miglyol 812, pH 7.5, 80 mM TEOS, 20 h

Molecule	Silica shell thickness [1, 4] [nm]	Silica shell thickness [1, 5] [nm]	Number-average diameter (dn) of oil droplets in nanoemulsion [2] [nm]	Polydispersity index (PDI) of nanoemulsion [2]	Increase in number-average diameter of nanoemulsion after dialysis [2]	PDI of nanocapsules [2, 6]	PDI of nanocapsules [2, 7]	Ability to precipitate/nucleate silica [3]	Silica shell thickness ([1]; 30 hours, 20 mM TEOS, 25 mM HEPES pH 7.5) [nm]	Silica shell thickness ([1]; 30 hours, 40 mM TEOS, 25 mM HEPES pH 7.5) [nm]	Silica shell thickness ([1]; 30 hours, 80 mM TEOS, 25 mM HEPES pH 7.5) [nm]	Outer diameter of nanocapsules [1, 8] [nm]	Silica shell thickness [1, 8] [nm]
Ac-MKQLAHSVSRLEHA-SSKKSGSYGGSKGSKRRIL-NH2 (Ac-MKQLAHSVSRLEHASSKKSGSYGGSKGSKRRIL-NH2) [SEQ ID NO: 153, custom synthesized mineralizing biosurfactant peptide, Mw 3643.2]	22±5	35±5	~80	0.329	approximately 5%	0.242	0.794	can nucleate silica	–	–	–	–	–
Ac-MKQLAHSVSRLEHA-RKKRKKRKKRKKGGGY-CONH2 (Ac-MKQLAHSVSRLEHARKKRKKRKKRKKGGGY-NH2) [SEQ ID NO: 154, custom synthesized mineralizing biosurfactant peptide, Mw 3632.4]	12±2	27±6	~40	0.293	approximately 5%	0.146	0.233	can nucleate silica	5±1	10±2	16±3	–	–
MDPS MKQLADS LHQLARQ VSRLEHA DPS MKQLADS LHQLARQ VSRLEHA DPS MKQLADS LHQLARQ VSRLEHA DPS MKQLADS LHQLARQ VSRLEHA EPS-RKKRKKRKKRKKGGGY (protein, recombinant mineralizing biosurfactant protein produced in Escherichia coli) MDPSMKQLADSLHQLARQVSRLEHADPSMKQLADSLHQLARQVSRLEHADPSMKQLADSLHQLARQVSRLEHADPSMKQLADSLHQLARQVSRLEHAEPSRKKRKKRKKRKKGGGY	–	–	–	–	–	–	–	–	–	–	–	249±29	26±2
